Holding throughout (test): SPR; biotinylated PEAK proteins (with or without Src phosphorylation) captured with a biotin CAPture kit, CrkII NSH3 as analyte; Biacore 8K+, 20 °C, HBS-TP (150 mM NaCl); 1 M NaCl regeneration; steady state
What all share (details): both partners purified

The target of test [1] is T1, full length PEAK3 (PEAK3^FL, residues 1-473), from insect cells (human, UniProt Q6ZS72 1-473, phosphoserine at S69; biotin (EZ-Link NHS-PEG4-Biotin, 1:1 molar ratio)).
T1 construct: Immobilised as the complex with insect cell 14-3-3ε,ζ
T1 sequence (looked up): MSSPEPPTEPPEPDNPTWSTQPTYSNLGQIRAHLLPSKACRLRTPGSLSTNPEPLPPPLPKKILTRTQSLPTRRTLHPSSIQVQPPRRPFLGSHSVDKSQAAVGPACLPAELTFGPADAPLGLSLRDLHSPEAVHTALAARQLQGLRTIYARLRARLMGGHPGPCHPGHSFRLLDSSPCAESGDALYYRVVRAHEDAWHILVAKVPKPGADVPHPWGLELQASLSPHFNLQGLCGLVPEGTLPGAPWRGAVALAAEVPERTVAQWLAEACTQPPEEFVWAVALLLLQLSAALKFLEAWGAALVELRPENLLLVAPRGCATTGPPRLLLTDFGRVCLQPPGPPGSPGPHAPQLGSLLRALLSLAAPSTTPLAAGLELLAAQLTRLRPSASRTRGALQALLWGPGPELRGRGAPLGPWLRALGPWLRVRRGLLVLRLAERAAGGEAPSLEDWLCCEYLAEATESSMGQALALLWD

Test [2] deals with T2, full length PEAK3 (PEAK3^FL, residues 1-473), from insect cells, phosphorylated by Src (human, UniProt Q6ZS72 1-473, phosphoserine at S69; phosphotyrosine at Y24 (by Src in vitro, shown by MS/MS); other Src sites not stated; biotin (EZ-Link NHS-PEG4-Biotin, 1:1 molar ratio)).
T2 construct: As Sm27, with Src phosphorylation before immobilisation; also called PEAK3-FL (+ Src phosphorylation); source: Sf21 insect cells, purified as a complex with insect 14-3-3ε,ζ; phosphorylated in vitro with recombinant Src kinase domain
T2 sequence (looked up): T1 sequence (looked up)

Test [3] has as its target T3, PEAK1^IDR1 (residues 1082-1746), from insect cells (human, UniProt Q9H792 1082-1746, biotin (EZ-Link NHS-PEG4-Biotin, 1:1 molar ratio)).
T3 construct: human PEAK1, UniProt Q9H792, residues 1082-1746; Purifies as a homodimer; Phosphorylation at the tandem 14-3-3 motif was not observed
T3 sequence (looked up): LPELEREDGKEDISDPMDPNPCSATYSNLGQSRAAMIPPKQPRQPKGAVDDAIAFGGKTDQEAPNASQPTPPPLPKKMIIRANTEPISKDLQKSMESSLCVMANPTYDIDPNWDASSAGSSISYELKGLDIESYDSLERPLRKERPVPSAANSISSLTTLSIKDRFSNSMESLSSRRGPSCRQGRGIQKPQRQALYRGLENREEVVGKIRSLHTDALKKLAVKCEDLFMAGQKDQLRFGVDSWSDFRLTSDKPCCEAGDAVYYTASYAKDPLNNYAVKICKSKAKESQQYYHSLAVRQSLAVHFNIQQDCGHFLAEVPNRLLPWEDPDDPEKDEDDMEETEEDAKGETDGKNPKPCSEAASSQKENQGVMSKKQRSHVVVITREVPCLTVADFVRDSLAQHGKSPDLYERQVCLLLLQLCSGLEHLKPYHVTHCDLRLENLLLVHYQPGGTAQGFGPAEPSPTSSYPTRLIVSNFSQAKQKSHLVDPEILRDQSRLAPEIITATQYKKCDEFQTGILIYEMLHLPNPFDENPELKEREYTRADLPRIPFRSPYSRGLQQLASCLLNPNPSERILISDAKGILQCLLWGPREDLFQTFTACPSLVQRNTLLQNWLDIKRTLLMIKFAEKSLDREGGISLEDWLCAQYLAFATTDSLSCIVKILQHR

Test [4] has as its target T4, full length PEAK3 (PEAK3^FL, residues 1-473), from E. coli, phosphorylated by Src (human, UniProt Q6ZS72 1-473, phosphorylated with Src kinase (Y24 is the site shown for PEAK3^FL by MS/MS); other Src sites not stated; biotin (EZ-Link NHS-PEG4-Biotin, 1:1 molar ratio)).
T4 construct: also called PEAK3-FL E.coli (+ Src phosphorylation); source: E. coli C41 (DE3), purified; phosphorylated in vitro with recombinant Src kinase domain
T4 sequence (looked up): T1 sequence (looked up)

In test [5] the target is T5, PEAK1^IDR1 (residues 1082-1746), from insect cells, phosphorylated by Src (human, UniProt Q9H792 1082-1746, phosphotyrosine at Y1107 (by Src in vitro, shown by MS/MS); other Src sites not stated; biotin (EZ-Link NHS-PEG4-Biotin, 1:1 molar ratio)).
T5 construct: human PEAK1, UniProt Q9H792, residues 1082-1746; also called PEAK1-IDR1 (+ Src phosphorylation); source: Sf21 insect cells, purified; phosphorylated in vitro with recombinant Src kinase domain
T5 sequence (looked up): T3 sequence (looked up)

As usually defined, the Kd is the concentration at which binding is half-saturated.

B1: CrkII N-terminal SH3 domain (CrkII^NSH3, residues 134-191) (domain or fragment, human, UniProt P46108-1 134-191, looked up)
chain: AEYVRALFDFNGNDEEDLPFKKGDILRIRDKPEEQWWNAEDSEGKRGMIPVPYVEKYR
notes: human CrkII NSH3 domain, UniProt P46108-1, residues 134-191; Amine coupled to a CM5 chip in a2; analyte in a4; in the syringe in ITC
Turning to B1, the Kd worked out at 3.87 µM in test [1]; 6.84 µM in test [2]; 3.7 µM in test [3]; 13.1 µM in test [4]; 4.11 µM in test [5].

The values are drawn from paper PMC10279719 (Nature Communications, 2023).
